Assay results reported in patent US20240409635A1 (VIBRANT PHARMA, published 2024).
Changes are numbered by the printed parent chain. Each block holds one binder with its values, some of them ahead of it.

Columns and labels:
[1] = biological target: epidermal growth factor receptor (EGFR) on human tumor cells (human, UniProt P00533 25-1210); experiment: cell-based or functional assay
[2] = biological target: T1, recombinant human CD3ε/δ protein (ACRO systems, CDD-H52W1) (human, UniProt P07766 23-126; P04234 22-105); experiment: BLI, antibody captured on AHC sensor
T1 construct: Bought reagent
Procedure: (§1) Antibodies were first captured onto an anti-human IgG Fc coated AHC biosensor (Anti-hIgG Fc, Sartorius, 18-5060). Antibodies were diluted to 5 μg/mL and 1.5 nm protein was coupled to the AHC sensor surface in 0.02% PBST.
(§2) After the sensor captures the antibodies, it is used to bind and dissociate with different concentrations of analytes to obtain the KD value of the interaction. The experimental parameters are as follows: Baseline1: 60 s, Loading: 240 s, Baseline2: 180 s, Association: 240 s, Dissociation: 600 s, High sensitivity kinetics: 2 Hz. Kinetic constants were derived based on the rate equation for 1:1 Langmuir binding to obtain equilibrium dissociation constants (KD). The Data Analysis HT 12 software (Sartorius, 50-5029) was used to simultaneously fit binding and dissociation curves to calculate Kₒₙ, and Koff. The affinity KD was calculated based on the below formula: KD=Koff/Kₒₙ.

[3] = biological target: T2, recombinant human tumor antigen HER2 (ERBB2, ACRO systems, HE2-H5212) (human, UniProt P04626 23-652); experiment: BLI, antibody on AHC sensor, antigen as analyte
T2 construct: Bought
Procedure: as §1
as §2, with “binds” for “is used to bind”, “dissociates” for “dissociate”, “Kₒₙ” for “Kₒₙ,”

[4] = biological target: T3, recombinant human tumor antigen CEA (CEACAM-5/CD66e, ACRO systems, CE5-H5226) (human, UniProt P06731 35-685); experiment: BLI, antibody on AHC sensor, antigen as analyte
T3 construct: Bought
T3 sequence (looked up): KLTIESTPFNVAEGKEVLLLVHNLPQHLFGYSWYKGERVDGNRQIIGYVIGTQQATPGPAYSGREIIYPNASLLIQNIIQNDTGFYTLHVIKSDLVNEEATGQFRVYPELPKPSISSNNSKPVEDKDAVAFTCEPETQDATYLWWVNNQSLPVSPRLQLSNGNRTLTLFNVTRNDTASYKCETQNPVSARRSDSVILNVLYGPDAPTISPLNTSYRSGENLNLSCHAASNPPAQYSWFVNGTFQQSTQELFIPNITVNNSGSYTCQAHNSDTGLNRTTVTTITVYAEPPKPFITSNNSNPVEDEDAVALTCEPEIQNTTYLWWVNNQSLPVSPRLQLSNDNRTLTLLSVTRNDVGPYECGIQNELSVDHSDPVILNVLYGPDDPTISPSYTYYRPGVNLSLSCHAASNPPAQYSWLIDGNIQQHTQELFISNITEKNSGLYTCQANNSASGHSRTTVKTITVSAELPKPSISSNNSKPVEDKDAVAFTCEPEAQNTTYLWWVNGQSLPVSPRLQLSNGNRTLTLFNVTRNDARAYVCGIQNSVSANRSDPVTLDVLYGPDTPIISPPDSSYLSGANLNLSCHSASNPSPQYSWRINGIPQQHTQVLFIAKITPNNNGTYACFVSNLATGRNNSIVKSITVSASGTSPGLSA
Procedure: as §1
as §2, with “binds” for “is used to bind”, “dissociates” for “dissociate”, “Kₒₙ” for “Kₒₙ,”

[5] = biological target: T4, recombinant human protein CD3ε/δ (ACRO systems, CDD-H52W1) (human, UniProt P07766 23-126; P04234 22-105); experiment: BLI, antibody on AHC sensor, antigen as analyte
T4 construct: Bought heterodimer
Procedure: as §1
as §2, with “binds” for “is used to bind”, “dissociates” for “dissociate”, “Kₒₙ” for “Kₒₙ,”

T1 sequence (P07766 23-126, stated change not applied, chain 1 of 2): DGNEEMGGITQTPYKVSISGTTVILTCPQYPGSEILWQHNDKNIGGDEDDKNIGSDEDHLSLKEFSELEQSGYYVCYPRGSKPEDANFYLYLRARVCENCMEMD
T1 sequence (P04234 22-105, stated change not applied, chain 2 of 2): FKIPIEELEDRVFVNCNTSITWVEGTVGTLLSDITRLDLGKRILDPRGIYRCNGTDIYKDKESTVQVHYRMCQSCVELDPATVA
T4 sequence (P07766 23-126, stated change not applied, chain 1 of 2): as the sequence (P07766 23-126, stated change not applied, chain 1 of 2) above
T4 sequence (P04234 22-105, stated change not applied, chain 2 of 2): as the sequence (P04234 22-105, stated change not applied, chain 2 of 2) above

B1: EGFR-BsAb bispecific control antibody (anti-CD3 TA1 Fab and EGFR VHH) (bispecific antibody, human IgG4 S228P, kappa, F234A L235A)
heavy: EVKLLESGGGLVQPKGSLKLSCAASGFTFNTYAMNWVRQAPGKGLEWVARIRSKYNNYATYYADSVKDRFTISRDDSQSILYLQMNNLKTEDTAMYYCVRHGNFGNSYVSWFAYWGQGTLVTVSSASTKGPSVFPLAPCSRSTSESTAALGCLVKDYFPEPVTVSWNSGALTSGVHTFPAVLQSSGLYSLSSVVTVPSSSLGTKTYTCNVDHKPSNTKVDKRVESKYGPPCPPCPAPEAAGGPSVFLFPPKPKDTLMISRTPEVTCVVVDVSQEDPEVQFNWYVDGVEVHNAKTKPREEQFNSTYRVVSVLTVLHQDWLNGKEYKCKVSNKGLPSSIEKTISKAKGQPREPQVYTLPPCQEEMTKNQVSLWCLVKGFYPSDIAVEWESNGQPENNYKTTPPVLDSDGSFFLYSRLTVDKSRWQEGNVFSCSVMHEALHNHYTQKSLSLSL
chain: QVQLQESGGGSVQAGGSLKLSCAASGRGFSRYAMGWFRQAPGQDREFVATISWTNSTDYADSVKGRFAISRDNAKNTAYLQMNSLKPEDTAVYYCAADKWASSTRSIDYDYWGQGIQVTVSSESKYGPPCPPCPAPEAAGGPSVFLFPPKPKDTLMISRTPEVTCVVVDVSQEDPEVQFNWYVDGVEVHNAKTKPREEQFNSTYRVVSVLTVLHQDWLNGKEYKCKVSNKGLPSSIEKTISKAKGQPREPQVCTLPPSQEEMTKNQVSLSCAVKGFYPSDIAVEWESNGQPENNYKTTPPVLDSDGSFFLVSRLTVDKSRWQEGNVFSCSVMHEALHNRFTQKSLSLSL
light: QAVVTQESALTTSPGETVTLTCRSSTGAVTTSNYANWVQEKPDHLFTGLIGGTNKRAPGVPARFSGSLIGDKAALTITGAQTEDEAIYFCALWYSNLWVFGGGTKVEIKRTVAAPSVFIFPPSDEQLKSGTASVVCLLNNFYPREAKVQWKVDNALQSGNSQESVTEQDSKDSTYSLSSTLTLSKADYEKHKVYACEVTHQGLSSPVTKSFNRGEC
- T cell mediated killing EC50, H-1975 (EGFR+c-Met+) [1]: 0.00032 nM
- T cell mediated killing EC50, HT-29 (EGFR+c-Met+) [1]: 0.000387 nM
- T cell mediated killing EC50, OSRC2 (EGFR+++c-Met+) [1]: 0.00245 nM
- T cell mediated killing EC50, UT33A (EGFR+++c-Met+++) [1]: 0.000398 nM
- T cell mediated killing EC50, UT44 (EGFR+++c-Met++) [1]: 0.000154 nM

B2: CEA-BsAb bispecific control antibody (TA1-Fab CD3 x CEA VHH) (bispecific antibody, human IgG4 S228P, kappa, F234A L235A)
heavy: B1 heavy
chain: EVQLVESGGGFVQAGESLTLSCTSSTLTFTPYRMAWYRQAPGKQRDLVADISSGDGRTTNYADFAKGRFTISRDNIKNTVFLRMTNLKPEDTAVYYCNTFVSFVGIARSWGQGTQVTVSSESKYGPPCPPCPAPEAAGGPSVFLFPPKPKDTLMISRTPEVTCVVVDVSQEDPEVQFNWYVDGVEVHNAKTKPREEQFNSTYRVVSVLTVLHQDWLNGKEYKCKVSNKGLPSSIEKTISKAKGQPREPQVCTLPPSQEEMTKNQVSLSCAVKGFYPSDIAVEWESNGQPENNYKTTPPVLDSDGSFFLVSRLTVDKSRWQEGNVFSCSVMHEALHNRFTQKSLSLSL
light: B1 light
- Kd [2]: 0.491 nM
- koff [2]: 0.000236 s⁻¹
- kon [2]: 481000 M⁻¹ s⁻¹

B5: HER2-BsAb (CD3 TA1-Fab x HER2 VHH bispecific control antibody) (bispecific antibody, human IgG4 S228P, kappa, F234A L235A)
heavy: B1 heavy
chain: QVQLVQSGGGLVQAGGSLRLSCAASGRTFSSYAMAWFRQAPGKEREFVAAISWSGANIYVADSVKGRFTISRDNAKDTVYLQMNSLKPEDTAVYYCAVKLGFAPVEERQYDYWGQGTQVTVSSESKYGPPCPPCPAPEAAGGPSVFLFPPKPKDTLMISRTPEVTCVVVDVSQEDPEVQFNWYVDGVEVHNAKTKPREEQFNSTYRVVSVLTVLHQDWLNGKEYKCKVSNKGLPSSIEKTISKAKGQPREPQVCTLPPSQEEMTKNQVSLSCAVKGFYPSDIAVEWESNGQPENNYKTTPPVLDSDGSFFLVSRLTVDKSRWQEGNVFSCSVMHEALHNRFTQKSLSLSL
light: B1 light
- Kd [3]: 98.4 nM
- koff [3]: 0.0126 s⁻¹
- kon [3]: 128000 M⁻¹ s⁻¹
- koff [4]: 0.000391 s⁻¹
- kon [4]: 877000 M⁻¹ s⁻¹
- Kd [5]: 1.51 nM
- koff [5]: 0.000386 s⁻¹
- kon [5]: 256000 M⁻¹ s⁻¹

Now from value to binder:

- Kd [3]: 105 nM
- koff [3]: 0.0116 s⁻¹
- kon [3]: 111000 M⁻¹ s⁻¹
- Kd [4]: 0.195 nM
- koff [4]: 0.000108 s⁻¹
- kon [4]: 553000 M⁻¹ s⁻¹
- Kd [5]: 1.77 nM
- koff [5]: 0.000727 s⁻¹
- kon [5]: 410000 M⁻¹ s⁻¹
B3: unilateral CD3/CEA/HER2 trispecific antibody 611 (other)
chain 1: QVQLVQSGGGLVQAGGSLRLSCAASGRTFSSYAMAWFRQAPGKEREFVAAISWSGANIYVADSVKGRFTISRDNAKDTVYLQMNSLKPEDTAVYYCAVKLGFAPVEERQYDYWGQGTQVTVSSGGGGSGGGGSEVKLLESGGGLVQPKGSLKLSCAASGFTFNTYAMNWVRQAPGKGLEWVARIRSKYNNYATYYADSVKDRFTISRDDSQSILYLQMNNLKTEDTAMYYCVRHGNFGNSYVSWFAYWGQGTLVTVSSASTKGPSVFPLAPCSRSTSESTAALGCLVKDYFPEPVTVSWNSGALTSGVHTFPAVLQSSGLYSLSSVVTVPSSSLGTKTYTCNVDHKPSNTKVDKRVESKYGPPCPPCPAPEAAGGPSVFLFPPKPKDTLMISRTPEVTCVVVDVSQEDPEVQFNWYVDGVEVHNAKTKPREEQFNSTYRVVSVLTVLHQDWLNGKEYKCKVSNKGLPSSIEKTISKAKGQPREPQVYTLPPCQEEMTKNQVSLWCLVKGFYPSDIAVEWESNGQPENNYKTTPPVLDSDGSFFLYSRLTVDKSRWQEGNVFSCSVMHEALHNHYTQKSLSLSL
chain 2: B2 chain
chain 3: B1 light

- Kd [3]: 108 nM
- koff [3]: 0.0122 s⁻¹
- kon [3]: 113000 M⁻¹ s⁻¹
- Kd [4]: 0.193 nM
- koff [4]: 0.000105 s⁻¹
- kon [4]: 542000 M⁻¹ s⁻¹
- Kd [5]: 1.77 nM
- koff [5]: 0.000682 s⁻¹
- kon [5]: 386000 M⁻¹ s⁻¹
B4: unilateral CD3/CEA/HER2 trispecific antibody 612 (other)
chain 1: B2 chain with C251Y, S256C, S268W, A270L, V309Y, R337H, F338Y
chain 2: B3 chain 1 with Y487C, C492S, W504S, L506A, Y545V, H573R, Y574F
chain 3: B1 light

- Kd [3]: 53.5 nM
- koff [3]: 0.00914 s⁻¹
- kon [3]: 171000 M⁻¹ s⁻¹
- Kd [4]: 0.153 nM
- koff [4]: 8.05e-05 s⁻¹
- kon [4]: 525000 M⁻¹ s⁻¹
- Kd [5]: 1.47 nM
- koff [5]: 0.000402 s⁻¹
- kon [5]: 273000 M⁻¹ s⁻¹
B6: unilateral CD3/CEA/HER2 trispecific antibody 610 (other)
chain 1: B2 chain with C251Y, S256C, S268W, A270L, V309Y, R337H, F338Y
chain 2: B1 heavy with Y354C, C359S, W371S, L373A, Y412V, H440R, Y441F
chain 3: QVQLVQSGGGLVQAGGSLRLSCAASGRTFSSYAMAWFRQAPGKEREFVAAISWSGANIYVADSVKGRFTISRDNAKDTVYLQMNSLKPEDTAVYYCAVKLGFAPVEERQYDYWGQGTQVTVSSGGGGSGGGGSQAVVTQESALTTSPGETVTLTCRSSTGAVTTSNYANWVQEKPDHLFTGLIGGTNKRAPGVPARFSGSLIGDKAALTITGAQTEDEAIYFCALWYSNLWVFGGGTKVEIKRTVAAPSVFIFPPSDEQLKSGTASVVCLLNNFYPREAKVQWKVDNALQSGNSQESVTEQDSKDSTYSLSSTLTLSKADYEKHKVYACEVTHQGLSSPVTKSFNRGEC
